The test has as its target 15N-labeled WT 2N4R tau (microtubule-associated protein tau, longest adult isoform) (human, UniProt P10636-8 1-441, 15N-labeled). The experiment in a line: NMR titration.

B1: DnaJA2 (natural protein)
chain: not shown
In the case of B1, the binding result was “binds”.

The values are drawn from PMC5942583 (Nature structural & molecular biology, 2018).
